We go through 28 sequences from the Immune Epitope Database (IEDB).

One assay addresses HLA-A*24:03. Put plainly: IEDB peptide-MHC binding, purified MHC/direct/fluorescence; filed as Kd, often an IC50 or EC50 that approximates it; ≥ and ≤ were set here for values at or beyond the usual limits of such assays.
Assay [1] deals with HLA-B*15:01. The experiment in a line: IEDB peptide-MHC binding, purified MHC/competitive/radioactivity; filed as Kd, often an IC50 or EC50 that approximates it; ≥ and ≤ were set here for values at or beyond the usual limits of such assays.
A further assay addresses HLA-A*02:02. The assay is described as above. The conditions noted are these: source organism: Vaccinia virus WR.
For the next assay, the target named is HLA-A*02:06. Described as above. The following applies: source organism: Vaccinia virus WR.
Another assay addresses HLA-A*02:03. The description is as above. The following applies: source organism: Vaccinia virus WR.
Another assay concerns the target HLA-A*30:02. The description is as above.
The target in another assay is HLA-A*26:01. The description is as above.
Another assay concerns the target HLA-A*23:01. Described as above.
In another assay the target is HLA-A*01:01. The assay is described as above. The following applies: source organism: Dengue virus 4 Philippines/H241/1956.
The target of a further assay is HLA-A*24:02. The assay is described as above. The conditions noted are these: source organism: Dengue virus 2 Jamaica/1409/1983.
In the next assay the target is HLA-B*35:01. The description is as above.
In another assay the target is HLA-B*53:01. Described as above.
Another assay deals with HLA-B*07:02. The description is as above.
The target of another assay is HLA-B*54:01. The description is as above.
For another assay, the target named is HLA-B*51:01. Described as above.
The next assay concerns the target HLA-B*08:01. The description is as above. The conditions noted are these: source organism: Vaccinia virus WR.
The target of assay [2] is HLA-B*15:01. The experiment in a line: IEDB peptide-MHC binding, purified MHC/competitive/fluorescence; filed as Kd, often an IC50 or EC50 that approximates it; ≥ and ≤ were set here for values at or beyond the usual limits of such assays. The conditions noted are these: source organism: Kurkino virus.
For another assay, the target named is HLA-A*03:01. The experiment in a line: IEDB peptide-MHC binding, purified MHC/competitive/radioactivity; filed as Kd, often an IC50 or EC50 that approximates it; ≥ and ≤ were set here for values at or beyond the usual limits of such assays. The following applies: source organism: Vaccinia virus WR.
The next assay concerns the target HLA-A*31:01. The assay is described as above. The conditions noted are these: source organism: Vaccinia virus WR.
In a further assay the target is HLA-A*68:01. The description is as above. The conditions noted are these: source organism: Vaccinia virus WR.
In the next assay the target is HLA-A*33:01. The assay is described as above. The following applies: source organism: Vaccinia virus WR.
Another assay addresses HLA-A*11:01. The assay is described as above. The following applies: source organism: Vaccinia virus WR.
Where [3] appears, read: source organism: Vaccinia virus WR.
Where [4] appears, read: source organism: Dengue virus 2 Jamaica/1409/1983.
Setting [5] is: source organism: Dengue virus 3 Martinique/1243/1999.
The mark [6] stands for this setting: source organism: Dengue virus 4 Philippines/H241/1956.
Where [7] appears, read: source organism: Lymphocytic choriomeningitis virus (strain Armstrong).
Where [8] appears, read: source organism: Mammarenavirus choriomeningitidis.
The mark [9] stands for this setting: source organism: Triticum aestivum.

On to VYRIMTRGL, for which the dissociation constant (Kd) (usually the constant that tells how readily two partners part at equilibrium) with HLA-A*24:03 (source organism: West Nile virus) was 580 nM.
In the case of NTNKHMLEF, in the assay with HLA-B*15:01 [1] (setting [3]), the dissociation constant (Kd) is 11.8 nM.
Consider QLFKYVPSA, for which the Kd turned out to be 12.3 nM in the assay with HLA-A*02:02, 349 nM with HLA-A*02:06, 377 nM with HLA-B*15:01 [1] (setting [3]) and 7.81 nM in the assay with HLA-A*02:03.
For EIYTYFSHC, the Kd with HLA-B*15:01 [1] (setting [3]) came to 933 nM.
As for ALLLLVAHY, the Kd is ≥ 76900 nM in the assay with HLA-A*30:02 (setting [4]) and 50.6 nM with HLA-B*15:01 [1] (setting [4]).
As to RTNAAMGAVF, the Kd is 19.4 nM in the assay with HLA-B*15:01 [1] (setting [5]), ≥ 57300 nM in the assay with HLA-A*26:01 (setting [5]) and 2050 nM in the assay with HLA-A*23:01 (setting [5]).
As to LSRVFFCVY, in the assay with HLA-B*15:01 [1] (setting [3]), the Kd stood at 2.9 nM.
For STANIFRGSY, the Kd was found to be 1.14 µM with HLA-A*01:01, 2.08 nM with HLA-A*30:02 (setting [6]), 4.87 nM with HLA-B*15:01 [1] (setting [6]) and 23.6 nM with HLA-A*26:01 (setting [6]).
Regarding MIIMDEAHF, the Kd with HLA-B*15:01 [1] (source organism: Dengue virus 1 Brazil/97-11/1997) amounted to 18.5 nM.
For FMALVAFLRF, the Kd with HLA-A*24:02 is ≥ 27.9 µM; with HLA-B*35:01 (setting [4]), 69.7 nM; with HLA-B*53:01 (setting [4]), 1000 nM; with HLA-B*15:01 [1] (setting [4]), 229 nM; with HLA-A*23:01 (setting [4]), 2510 nM.
Regarding FAPSYSAEM, the Kd with HLA-B*15:01 [1] (setting [3]) turned out to be 454 nM.
MPEWANFKF: the Kd with HLA-B*07:02 (setting [7]) was 769 nM; in the assay with HLA-B*35:01 (setting [7]), 9.29 nM; in the assay with HLA-B*53:01 (setting [7]) it was 13.5 nM; with HLA-B*54:01 (setting [7]) it was 1.37 µM; in the assay with HLA-B*51:01 (setting [7]), ≥ 28.2 µM.
With ALMVIGMAM, in the assay with HLA-B*15:01 [1] (setting [6]), the dissociation constant Kd is 2.62 nM.
On to LPHIIDEVM, for which the dissociation constant (Kd) with HLA-B*07:02 (setting [8]) came to 154 nM; with HLA-B*35:01 (setting [8]) it was 15 nM; in the assay with HLA-B*53:01 (setting [8]), 842 nM; in the assay with HLA-B*54:01 (setting [8]) it was 9.01 µM; with HLA-B*51:01 (setting [8]), 9.36 µM.
On to EPVVKDKIKL, for which the Kd in the assay with HLA-B*07:02 (setting [3]) was ≥ 31500 nM; with HLA-B*35:01 (setting [3]) it was ≥ 69900 nM; in the assay with HLA-B*53:01 (setting [3]), ≥ 54200 nM; with HLA-B*54:01 (setting [3]), ≥ 42.7 µM; with HLA-B*51:01 (setting [3]) it was ≥ 69.6 µM.
Take YPLGQGSF: the dissociation constant (Kd) was 5550 nM in the assay with HLA-B*07:02 (setting [9]); 1520 nM in the assay with HLA-B*35:01 (setting [9]); 1660 nM in the assay with HLA-B*53:01 (setting [9]); ≥ 53.8 µM in the assay with HLA-B*54:01 (setting [9]); 1.14 µM with HLA-B*51:01 (setting [9]).
As for SMISRHCCI, the Kd with HLA-B*08:01 was 1.25 nM; with HLA-B*15:01 [1] (setting [3]), 80.7 nM.
Turning to FQTLTSCTF, the Kd with HLA-B*15:01 [2] is 35.7 nM.
Turning to RPEMQEFEY, the Kd in the assay with HLA-B*07:02 (setting [3]) is ≥ 68800 nM; with HLA-B*35:01 (setting [3]), 8.09 nM; in the assay with HLA-B*53:01 (setting [3]), 16.7 nM; with HLA-B*54:01 (setting [3]), ≥ 78.1 µM; with HLA-B*51:01 (setting [3]), ≥ 77.5 µM.
As to VSVNNVCHM, in the assay with HLA-B*15:01 [1] (source organism: Vaccinia virus Copenhagen), the Kd was found to be 13.9 nM.
Turning to CPFLFLMLL, the dissociation constant (Kd) with HLA-B*07:02 (setting [8]) was ≥ 77400 nM; with HLA-B*35:01 (setting [8]), 1420 nM; with HLA-B*53:01 (setting [8]), 2100 nM; with HLA-B*54:01 (setting [8]) it was 0.142 µM; with HLA-B*51:01 (setting [8]), ≥ 45.9 µM.
In the case of LPYVGDTSMM, the dissociation constant Kd in the assay with HLA-B*07:02 (setting [3]) was 828 nM; with HLA-B*35:01 (setting [3]), 816 nM; in the assay with HLA-B*53:01 (setting [3]) it was 8530 nM; in the assay with HLA-B*54:01 (setting [3]) it was ≥ 69.9 µM; with HLA-B*51:01 (setting [3]), 3.05 µM.
NPQAQGSV: the Kd with HLA-B*07:02 (setting [9]) was 3660 nM; with HLA-B*35:01 (setting [9]), ≥ 87800 nM; in the assay with HLA-B*53:01 (setting [9]), ≥ 87700 nM; in the assay with HLA-B*54:01 (setting [9]) it was 10.9 µM; with HLA-B*51:01 (setting [9]) it was 6.06 µM.
As to ALITVSGLY, the dissociation constant Kd with HLA-A*01:01 was found to be 8.11 µM; in the assay with HLA-A*30:02 (setting [6]), 0.68 nM; with HLA-B*15:01 [1] (setting [6]), 2.26 nM; with HLA-A*26:01 (setting [6]), 560 nM.
On to DPEKFNARMA, for which the Kd is ≥ 53700 nM with HLA-B*07:02 (setting [3]); ≥ 69900 nM with HLA-B*35:01 (setting [3]); ≥ 44700 nM with HLA-B*53:01 (setting [3]); 1.01 µM with HLA-B*54:01 (setting [3]); ≥ 40.5 µM with HLA-B*51:01 (setting [3]).
In the case of HPIMYYTKF, the Kd in the assay with HLA-B*07:02 (setting [7]) was found to be 134 nM; with HLA-B*35:01 (setting [7]), 17.7 nM; with HLA-B*53:01 (setting [7]) it was 14.5 nM; with HLA-B*54:01 (setting [7]), 3.77 µM; with HLA-B*51:01 (setting [7]), 1.6 µM.
Take LLHCVTESY: the Kd was 3.93 µM with HLA-A*03:01; 12.5 µM with HLA-A*31:01; 12.4 µM with HLA-A*68:01; ≥ 26.3 µM in the assay with HLA-A*33:01; 1.04 nM with HLA-B*15:01 [1] (setting [3]); 8.23 µM with HLA-A*11:01.
With AFMRFDDQF, the dissociation constant Kd with HLA-A*24:03 (source organism: Listeria monocytogenes) was ≤ 1 nM.
